Test results published in EP4813396A2 (Amphivena Therapeutics, Inc., dated 2026).
Values joined by “and” are separate entries in the source; they are usually repeats but may differ in a detail not shown here. Equal values may be shown once.

How the values were obtained:
human CD3 on T cells [1] = target: T1, human CD3 on T cells (human, UniProt P07766 23-207); assay: flow cytometry, human T-cells (as headed in Table 10)
T1 construct: whole, on cells; also called hu CD3; CD3 on Jurkat cells

[2] = target: cynomolgus CD33 on CHO cells (cynomolgus monkey); assay: flow cytometry; KD on CHO-cynomolgus CD33 cells divided by KD on CHO-human CD33 cells
human CD3 on T cells [3] = target: T1, human CD3 on T cells; assay: flow cytometry, titration on human CD3+ T cells (Jurkat per paragraph 124/paragraph 125)
human CD33 on cells [4] = target: T2, human CD33 on cells (human, UniProt P20138 18-364); assay: flow cytometry, titration on KG-1 cells
T2 construct: whole, on cells; also called huCD33
T2 sequence (P20138 18-364): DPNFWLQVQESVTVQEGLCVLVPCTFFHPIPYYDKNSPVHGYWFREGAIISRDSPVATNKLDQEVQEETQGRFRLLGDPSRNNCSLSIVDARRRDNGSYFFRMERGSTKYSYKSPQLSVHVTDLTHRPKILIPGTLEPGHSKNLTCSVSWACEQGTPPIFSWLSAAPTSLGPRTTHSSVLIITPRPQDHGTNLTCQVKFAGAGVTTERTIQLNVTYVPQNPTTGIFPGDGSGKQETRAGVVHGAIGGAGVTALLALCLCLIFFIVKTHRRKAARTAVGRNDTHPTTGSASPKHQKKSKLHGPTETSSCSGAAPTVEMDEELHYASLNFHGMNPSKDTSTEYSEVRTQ

human CD33 on cells [5] = target: T2, human CD33 on cells; assay: flow cytometry, titration on HL-60 cells
human CD33 on cells [6] = target: T2, human CD33 on cells; assay: cell-based or functional assay
human CD33 on cells [7] = target: T2, human CD33 on cells; assay: flow cytometry, HL-60 cells
human CD33 on cells [8] = target: T2, human CD33 on cells; assay: flow cytometry, titration on U-937 cells
human CD3 on T cells [9] = target: T1, human CD3 on T cells; assay: cell-based or functional assay
human CD33 on cells [10] = target: T2, human CD33 on cells; assay: cell-based or functional assay; remark: listed apart in the source
human CD33 on cells [11] = target: T2, human CD33 on cells; assay: cell-based or functional assay; remark: listed apart in the source

T1 sequence (P07766 23-207): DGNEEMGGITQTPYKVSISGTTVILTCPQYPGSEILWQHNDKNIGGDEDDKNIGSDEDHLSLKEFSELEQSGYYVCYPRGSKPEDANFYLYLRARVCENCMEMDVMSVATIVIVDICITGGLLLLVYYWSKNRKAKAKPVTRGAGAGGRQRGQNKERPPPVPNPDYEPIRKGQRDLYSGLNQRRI

Kd (human CD3 on T cells [1]) [nM] | KD ratio cynoCD33/ huCD33 [2] | Kd (human CD3 on T cells [3]) [nM] | Kd (human CD33 on cells [4]) [nM] | Kd (human CD33 on cells [5]) [nM] | Kd (human CD33 on cells [7]) [nM] | Kd (human CD33 on cells [8]) [nM] | CD25 Induction EC50 (pM) (human CD3 on T cells [9]) | CD69 Induction EC50 (pM) (human CD3 on T cells [9]) | T cell Proliferation in PBMC EC50 (pM) (human CD3 on T cells [9]) | IC50, lysis of KG-1 cells with human T cells (E:T 5:1, 24 h) (human CD33 on cells [10]) [nM] | EC50 [pM (pg/mL)] on human CD33+ target cell lines: mean of HL-60, U-937, KG-1 (human CD33 on cells [11]) | Binder | EC50 on HL-60 [pM] (cytotoxicity) (human CD33 on cells [6]) | EC50 [pM (pg/mL)] on human CD33+ target cell lines: HL-60 (cytotoxicity, E:T 5:1, 20-24 h) (human CD33 on cells [11]) | EC50 [pM (pg/mL)] on human CD33+ target cell lines: KG-1 (cytotoxicity, E:T 5:1, 20-24 h) (human CD33 on cells [11]) | EC50 [pM (pg/mL)] on human CD33+ target cell lines: U-937 (cytotoxicity, E:T 5:1, 20-24 h) (human CD33 on cells [11])
49.7 | 45.8 | 49.7 | 47.9 | 13.7 | 13.7 | 47.1 | 134 | 65 | 50 |  |  | CD33/CD3 tandem diabody 07 (bispecific antibody, Non-covalent homodimer; domain order 1; also called TandAb 07; tandem diabody 7) DIQMTQSPSSLSASVGDRVTITCRSSTGAVTTSNYANWVQQKPGKAPKALIGGTNKRAPGVPSRFSGSLIGDKATLTISSLQPEDFATYYCALWYSNLWVFGQGTKVEIKGGSGGSQVQLQESGGGVVQPGRSLRLSCAASGFSFSNYGIHWVRQAPGKGLEWVALISYDGNKKFYADSVKGRFAISRDTSKNTVDLQMTSLRPEDTAVYYCAKDRLESAAFDYWGQGTLVTVSSGGSGGSSYELTQPPSVSVAPGQTAMITCGGNNIGSTTVHWYQQKPGQAPVLVVYDDNERPSGIPERFSGSNSGSTATLTINRVEAGDEADYYCQVWDSGSDHVVFGGGTKLTVLGGSGGSEVQLVESGGGLVQPGGSLRLSCAASGFTFSTYAMNWVRQAPGKGLEWVGRIRSKYNNYATYYADSVKDRFTISRDDSKNSLYLQMNSLKTEDTAVYYCARHGNFGNSYVSYFAYWGQGTLVTVSSAAAGSHHHHHH | 17.8 |  |  | 
55.7 | 1.6 | 55.7 | 0.3 | 0.2 | 0.2 | 0.5 | 30 | 22 | 23 |  |  | CD33/CD3 tandem diabody 13 (bispecific antibody, Non-covalent homodimer; domain order 1; also called TandAb 13) DIQMTQSPSSLSASVGDRVTITCRSSTGAVTTSNYANWVQQKPGKAPKGLIGGTNKRAPGVPSRFSGSLIGTDFTLTISSLQPEDFATYYCALWYSNLWVFGQGTKVEIKGGSGGSQVQLVQSGAEVKKPGASVKVSCKASGYTFTSYDINWVRQAPGQGLEWMGWMNPNSGNTGFAQKFQGRVTMTRDTSTSTVYMELSSLRSEDTAVYYCARDRAVTDYYYGMDVWGQGTLVTVSSGGSGQSVLTQPPSASGTPGQRVTISCSGSRSNIGSNTVNWYQQLPGTAPKLLIYGNNQRPSGVPDRFSGSKSGTSASLAISGLQSEDEADYYCATWDDSLIGWVFGGGTKLTVLGGSGGSEVQLVESGGGLVQPGGSLRLSCAASGFTFSTYAMNWVRQAPGKGLEWVGRIRSKYNNYATYYADSVKDRFTISRDDSKNSLYLQMNSLKTEDTAVYYCARHGNFGNSYVSWFAYWGQGTLVTVSS | 1.1 |  |  | 
6.3 | 37.3 | 6.3 | 3.6 | 2.8 | 2.8 | 5.4 | 9 | 5 | 6 | ~0.005 |  | CD33/CD3 tandem diabody 19 (bispecific antibody, Non-covalent homodimer; domain order 1; also called TandAb 19) DIQMTQSPSSLSASVGDRVTITCRSSTGAVTTSNYANWVQQKPGKAPKALIGGTNKRAPGVPSRFSGSLIGDKATLTISSLQPEDFATYYCALWYSNLWVFGQGTKVEIKGGSGGSQVQLVQSGAEVKKPGASVKVSCKASGYTFTSYYMHWVRQAPGQGLEWMGIINPSGGSTSYAQKFQGRVTMTRDTSTSTVYMELSSLRSEDTAVYYCARDVVPAAIDYYGMDVWGQGTTVTVSSGGSGQSVLTQPPSASGTPGQRVTISCSGSSSNIGSNTVNWYQQLPGTAPKLLIYSDNQRPSGVPDRFSGSKSGSSASLAISGLQSDDEADYYCATWDDSLNGAVFGGGTKLTVLGGSGGSEVQLVESGGGLVQPGGSLRLSCAASGFTFSTYAMNWVRQAPGKGLEWVGRIRSKYNNYATYYADSVKDRFTISRDDSKNSLYLQMNSLKTEDTAVYYCARHGNFGNSYVSYFAYWGQGTLVTVSSAAAGSHHHHHH | 5.7 |  |  | 
69.5 | 0.8 | 69.5 | 1.2 | 1 | 1 | 6.2 | 116 | 74 | 74 |  |  | CD33/CD3 tandem diabody 05 (bispecific antibody, Non-covalent homodimer; domain order 1; also called TandAb 05; tandem diabody 5) DIQMTQSPSSLSASVGDRVTITCRSSTGAVTTSNYANWVQQKPGKAPKGLIGGTNKRAPGVPARFSGSGSGTDFTLTISSLQPEDFATYYCALWYSNLWVFGQGTKVEIKGGSGGSQVQLVQSGAEVKKPGASVKVSCKASGYTFTSYDINWVRQAPGQGLEWMGWMNPNSGNTGFAQKFQGRVTMTRDTSTSTVYMELSSLRSEDTAVYYCARDRANTDYSFGMDVWGQGTLVTVSSGGSGGQSVLTQPPSASGTPGQRVTISCSGSRSNIGSNTVNWYQQLPGTAPKLLIYGNNQRPSGVPDRFSGSKSGTSASLAISGLQSEDEADYYCATWDDSLIGWVFGGGTKLTVLGGSGGSEVQLVESGGGLVQPGGSLRLSCAASGFTFSTYAMNWVRQAPGKGLEWVGRIRSKYNNYATYYADSVKDRFTISRDDSKNSLYLQMNSLKTEDTAVYYCARHGNFGNSYVSWFAYWGQGTLVTVSSAAAGSHHHHHH | 2.7 |  |  | 
86.3 | 0.8 | 86.3 | 0.5 | 0.4 | 0.4 | 1.6 | 39 | 21 | 48 |  |  | CD33/CD3 tandem diabody 06 (bispecific antibody, Non-covalent homodimer; domain order 1; also called TandAb 06; tandem diabody 6) DIQMTQSPSSLSASVGDRVTITCRSSTGAVTTSNYANWVQQKPGKAPKGLIGGTNKRAPGVPARFSGSGSGTDFTLTISSLQPEDFATYYCALWYSNLWVFGQGTKVEIKGGSGGSQVQLVQSGAEVKKPGASVKVSCKASGYTFTSYDINWVRQAPGQGLEWMGWMNPNSGNTGFAQKFQGRVTMTRDTSTSTVYMELSSLRSEDTAVYYCARDRANTDYSLGMDVWGQGTLVTVSSGGSGGQSVLTQPPSASGTPGQRVTISCSGSRSNIGSNTVNWYQQLPGTAPKLLIYGNNQRPSGVPDRFSGSKSGTSASLAISGLQSEDEADYYCATWDDSLIGWVFGGGTKLTVLGGSGGSEVQLVESGGGLVQPGGSLRLSCAASGFTFSTYAMNWVRQAPGKGLEWVGRIRSKYNNYATYYADSVKDRFTISRDDSKNSLYLQMNSLKTEDTAVYYCARHGNFGNSYVSWFAYWGQGTLVTVSSAAAGSHHHHHH | 1.6 |  |  | 
2.1 | 1 | 2.1 | 0.3 | 0.3 | 0.3 | 1.2 | 10 | 7 | 6 |  | 2.6 pM and 273 pg/mL | CD33/CD3 tandem diabody 14 (bispecific antibody, Non-covalent homodimer; domain order 1; also called TandAb 14) DIQMTQSPSSLSASVGDRVTITCRSSTGAVTTSNYANWVQQKPGKAPKALIGGTNKRAPGVPSRFSGSLIGDKATLTISSLQPEDFATYYCALWYSNLWVFGQGTKVEIKGGSGGSQVQLVQSGAEVKKPGASVKVSCKASGYTFTSYDINWVRQAPGQGLEWMGWMNPNSGNTGFAQKFQGRVTMTRDTSTSTVYMELSSLRSEDTAVYYCARDRANTDFSYGMDVWGQGTLVTVSSGGSGQSVLTQPPSASGTPGQRVTISCSGSRSNIGSNTVNWYQQLPGTAPKLLIYGNNQRPSGVPDRFSGSKSGSSASLAISGLQSEDEADYYCATWDDSLIGWVFGGGTKLTVLGGSGGSEVQLVESGGGLVQPGGSLRLSCAASGFTFSTYAMNWVRQAPGKGLEWVGRIRSKYNNYATYYADSVKDRFTISRDDSKNSLYLQMNSLKTEDTAVYYCARHGNFGNSYVSYFAYWGQGTLVTVSSAAAGSHHHHHH | 1.6 | 1.6 pM and 168 pg/mL | 2.6 pM and 273 pg/mL | 3.6 pM and 378 pg/mL
3.3 | 1.9 | 3.3 | 52.5 | 5 | 5 | 24.4 | 30 | 114 | 30 |  |  | CD33/CD3 tandem diabody 17 (bispecific antibody, Non-covalent homodimer; domain order 1; also called TandAb 17) DIQMTQSPSSLSASVGDRVTITCRSSTGAVTTSNYANWVQQKPGKAPKALIGGTNKRAPGVPSRFSGSLIGDKATLTISSLQPEDFATYYCALWYSNLWVFGQGTKVEIKGGSGGSQVQLVQSGAEVKKPGESLKISCKGSGYSFTSYWIGWVRQMPGKGLEWMGIIYPGDSDTRYSPSFQGQVTISADKSISTAYLQWSSLKASDTAMYYCARHKRGSDAFDIWGQGTTVTVSSGGSGQSVLTQPPSVSGAPGQRVTISCTGSSSNIGAGYDVHWYQQLPGTAPKLLIYGNSNRPSGVPDRFSGSKSGTSASLAITGLQAEDEADYYCQSYDSSLSDVVFGGGTKLTVLGGSGGSEVQLVESGGGLVQPGGSLRLSCAASGFTFSTYAMNWVRQAPGKGLEWVGRIRSKYNNYATYYADSVKDRFTISRDDSKNSLYLQMNSLKTEDTAVYYCARHGNFGNSYVSYFAYWGQGTLVTVSSAAAGSHHHHHH | 18.4 |  |  | 
